Experimental data reported in paper PMC9813358, “Insights into the GSDMB-mediated cellular lysis and its targeting by IpaH7.8” (Nature Communications, 2023).

B1: human GSDMD [human] / IpaH7.8 protein (residues 23–565) [Shigella flexneri] (parent)
chain 1: MGSAFERVVRRVVQELDHGGEFIPVTSLQSSTGFQPYCLVVRKPSSSWFWKPRYKCVNLSIKDILEPDAAEPDVQRGRSFHFYDAMDGQIQGSVELAAPGQAKIAGGAAVSDSSSTSMNVYSLSVDPNTWQTLLHERHLRQPEHKVLQQLRSRGDNVYVVTEVLQTQKEVEVTRTHKREGSGRFSLPGATCLQGEGQGHLSQKKTVTIPSGSTLAFRVAQLVIDSDLDVLLFPDKKQRTFQPPATGHKRSTSEGAWPQLPSGLSMMRCLHNFLTDGVPAEGAFTEDFQGLRAEVETISKELELLDRELCQLLLEGLEGVLRDQLALRALEEALEQGQSLGPVEPLDGPAGAVLECLVLSSGMLVPELAIPVVYLLGALTMLSETQHKLLAEALESQTLLGPLELVGSLLEQSAPWQERSTMSLPPGLLGNSWGEGAPAWVLLDECGLELGEDTPHVCWEPQAQGRMCALYASLALLSGLSQEPH
chain 2: SNEHYLRILTEWEKNSSPGEERGIAFNRLSQCFQNQEAVLNLSDLNLTSLPELPKHISALIVENNKLTSLPKLPAFLKELNADNNRLSVIPELPESLTTLSVRSNQLENLPVLPNHLTSLFVENNRLYNLPALPEKLKFLHVYYNRLTTLPDLPDKLEILCAQRNNLVTFPQFSDRNNIRQKEYYFHFNQITTLPESFSQLDSSYRINISGNPLSTRVLQSLQRLTSSPDYHGPQIYFSMSDGQQNTLHRPLADAVTAWFPENKQSDVSQIWHAFEHEEHANTFSAFLDRLSDTVSARNTSGFREQVAAWLEKLSASAELRQQSFAVAADATESCEDRVALTWNNLRKTLLVHQASEGLFDNDTGALLSLGREMFRLEILEDIARDKVRTLHFVDEIEVYLAFQTMLAEKLQLSTAVKEMRFYGVSGVTANDLRTAEAMVRSREENEFTDWFSLWGPWHAVLKRTEADRWAQAEEQKYEMLENEYSQRVADRLKASGLSGDADAEREAGAQVMRETEQQIYRQLTDEVLALRLSENGSRLHHS

Variants of: B1
Test: ITC
Conditions: with IpaH7.8 protein (residues 23–565) [Shigella flexneri]

Variant | Kd [nM]
chain 1 S124R | 230
